Test results: patent publication US20180230214A1

Target: biotinylated soluble human CD56 (human) (UniProt P13591)
Test: flow cytometry of 56-28z-LNGFR transduced T cells stained with biotinylated soluble human CD56 (y axis 'sCD56 binding') against LNGFR (x axis). The other quadrants of this panel read 0.56 (upper left), 41.8 (lower left) and 33.1 (lower right). The sCD56 signal rises with LNGFR to about 10^3. The untransduced T cell control panel reads 0.57 (upper left), 0.27 (upper right), 97.6 (lower left) and 1.61 (lower right).

quadrant number, cells positive for sCD56 binding and for LNGFR (upper right quadrant): 24.5%
Substance: 56-28z CAR (scFv of murine anti-human CD56 antibody N901 fused to CD28/CD3z domains)
